Test results as given in US20240269292A1.
Non-standard residues stand in square brackets, D forms with d. No end group written: not given here. *: point of attachment. Dmt = Cc1cc(O)cc(C)c1C[C@H](N)C(=O)O; stearyl ester = CCCCCCCCCCCCCCCCCCO*

Columns and labels:
[1] = type: physicochemical; conditions: EY005-stearyl solubilized in methyl laurate, incubated 1 hour, HPLC
Protocol: Kd values were calculated as [unbound]/[bound] fraction prodrug under each condition.

[2] = Fluorescence microscopy of complexation of FITC-labeled drug with particulates; type: physicochemical; conditions: for Fluorescence after carboxyesterase: carboxyesterase 0.1 μg/mL
Source text: (§1) As described herein, formation of MTT-prodrug-complex particulates can be verified experimentally by direct visualization. For example, the MTT-prodrug EY005-stearyl was fluorescently labeled with fluorescein isothiocyanate (FITC) and admixed with different complexation agents. The resultant mixture was then visualized under direct fluorescence microscopy. […] In contrast, FITC-labeled EY005-stearyl was not observed to form drug-complex particulates with silica microbeads (see FIG. 24A-24D), indicating the process of complexation and drug-complex particulate formation is highly dependent on favorable noncovalent interaction between drug and complexation agent.
(§2) Further, this noncovalent interaction is specifically mediated by the conjugation moiety of the MTT-prodrug. FITC-labeled EY005-stearyl that had been admixed with complexation agent was treated with an aqueous solution of carboxyesterase (0.1 μg/mL) to hydrolyze the ester bond of the prodrug, releasing the fluorescent peptide.
as §1, with “(FIG. 24C),” for “(see FIG. 24A-24D),”

Albumin [3] = biological target: Albumin (Homo sapiens, UniProt P02768); experiment: as above; type: binding
Source text: as §1, §2
as §1, with “(FIG. 24C),” for “(see FIG. 24A-24D),”

[4] = system: T1, EY005-stearyl prodrug (H-d-Arg-DMT-Lys-Phe(-O)-stearyl)
T1 sequence: RYKF

Albumin [5] = experiment: pull-down by centrifugation in methyl laurate after 1 hour incubation, HPLC quantification; unitless ratio
Albumin [6] = experiment: pull-down by centrifugation in methyl laurate after 1 hour incubation, HPLC quantification

OC[C@H]1O[C@@H]2O[C@H]3[C@H](O)[C@@H](O)[C@@H](O[C@H]4[C@H](O)[C@@H](O)[C@@H](O[C@H]5[C@H](O)[C@@H](O)[C@@H](O[C@H]6[C@H](O)[C@@H](O)[C@@H](O[C@H]7[C@H](O)[C@@H](O)[C@@H](O[C@H]8[C@H](O)[C@@H](O)[C@@H](O[C@H]9[C@H](O)[C@@H](O)[C@@H](O[C@H]1[C@H](O)[C@H]2O)O[C@@H]9CO)O[C@@H]8CO)O[C@@H]7CO)O[C@@H]6CO)O[C@@H]5CO)O[C@@H]4CO)O[C@@H]3CO [Cyclodextrin gamma]
μg EY005-stearyl complexed per mg complexation agent [1]: 2.3 μg per mg complexation agent

FITC-labeled EY005 native peptide: EY005 native peptide labeled with fluorescein isothiocyanate ([dR][Dmt]KF-OH; also: FITC label, site not given here)
Complexation by fluorescence ([2]; silica microbeads): interacted with silica microbeads creating fluorescent round figures | Complexation by fluorescence (Albumin [3]): minimal complexation

FITC-labeled EY005-stearyl prodrug: MTT-prodrug EY005-stearyl fluorescently labeled with fluorescein isothiocyanate (FITC) ([dR][Dmt]KF-{stearyl ester}; also: FITC label, site not given here)
Fluorescence after carboxyesterase ([2]; cyclodextrin): reduced levels of fluorescence | Fluorescence after carboxyesterase ([2]; lecithin): reduced levels of fluorescence | Fluorescence after carboxyesterase ([2]; magnesium stearate): reduced levels of fluorescence | Complexation by fluorescence ([2]; silica microbeads): no evidence of complexation | Fluorescence after carboxyesterase ([2]; silica microbeads): did not alter extremely low levels of fluorescence | Complexation by fluorescence (Albumin [3]): bright fluorescence | Fluorescence after carboxyesterase (Albumin [3]; carboxyesterase 0.1 μg/mL): reduced levels of fluorescence

carboxyesterase
cleavage of the prodrug ester bond (HPLC) [4]: Incubation of EY005-stearyl with carboxyesterase produced rapid cleavage of the prodrug ester bond, releasing EY005

H-[dR][Dmt]KF-{stearyl ester} (also: DMT isomer not given here) [EY005-stearyl prodrug (H-d-Arg-DMT-Lys-Phe(-O)-stearyl)]
Calculated Kd ([unbound]/[bound] fraction of prodrug) (Albumin [5]): 1.34 | µg EY005-stearyl complexed per mg complexation agent (binding capacity) (µg per mg complexation agent) (Albumin [6]): 4.5
